Data: the supplement of paper PMC9942255
Values joined by “and” are separate entries in the source; they are usually repeats but may differ in a detail not shown here. Equal entries are not always repeated.

Test system: Bacillus subtilis DB104 (SP-AmyQ fusion secretion)
Experiment: AmyQ secretion efficiency, weighted average sort bin (1 = best secretion, 10 = worst) (bin number (weighted average, 1-10)); higher = lower secretion efficiency
Procedure, shortened: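 In this assay, the secretion score is defined as the average bin number weighted by read frequency, normalised to beads per bin, with low-abundance sequences not counted. B. subtilis DB104 cells expressing mature AmyQ behind designed signal peptides (amyE-integrated) were enclosed with fluorescein-starch in ~65 nL alginate beads at about 0.3 cells per bead. Beads grew about 13 h at room temperature, were stained with nile red, and occupied beads went into 10 equally populated green/red fluorescence ratio bins by large-particle flow cytometry, whose amplicons were Illumina-sequenced.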

Row | Sequence | AmyQ secretion efficiency
1 | MKKVLMAFIICLSLILSVLAAPPSGAKVESV | 4.98
2 | MKKVLMAFIICLSLILSVLAAPPSGCKAESV | 1.89
3 | MKKVLMAFIICLSLILSVLAAPPSGDKAESV | 5.71
4 | MKKVLMAFIICLSLILSVLAAPPSGEKAESV | 6.63
5 | MKKVLMAFIICLSLILSVLAAPPSGGKAESV | 5
6 | MKKVLMAFIICLSLILSVLAAPPSGHKAESV | 7.55
7 | MKKVLMAFIICLSLILSVLAAPPSGIKAESV | 3.36
8 | MKKVLMAFIICLSLILSVLAAPPSGKKAESV | 8.34
9 | MKKVLMAFIICLSLILSVLAAPPSGMKAESV | 1.84
10 | MKKVLMAFIICLSLILSVLAAPPSGNKAESV | 4.42
11 | MKKVLMAFIICLSLILSVLAAPPSGPKAESV | 3.78
12 | MKKVLMAFIICLSLILSVLAAPPSGQKAESV | 7.08
13 | MKKVLMAFIICLSLILSVLAAPPSGSAVSAKAESV | 2.05
14 | MKKVLMAFIICLSLILSVLAAPPSGSKAESV | 3.67
15 | MKKVLMAFIICLSLILSVLAAPPSGTKAESV | 2.94
16 | MKKVLMAFIICLSLILSVLAAPPSGVKAESV | 1.85
17 | MKKVLMAFIICLSLILTLTSVIFISVLAAPPSGAKAESV | 2.47
18 | MKKVLMAFIICLSLILVVLAAGPSTAKAESV | 1.98
19 | MKKVLMAFIICLSVLAAPPSGAKAESV | 2.14
20 | MKKVMLATALFLGLTFTTFAPAGANAADL | 2.89
21 | MKKVMLATALFLGLTPAGANAARR | 4.33
22 | MKKVMLATALFLGLTPAGANAASK | 2.96
23 | MKKVMLATALFLGLTPAGANARKR | 6.61
24 | MKKVMLATALFLGLTPAGANIADL | 6.67
25 | MKKVMLATALFLGLTPAGVNAADL | 4.08
26 | MKKVMLATALFLGLTPANAADL | 8.14

Row | Sequence | AmyQ secretion efficiency
27 | MKKVMLATALFLGLTPDGANAADL | 4
28 | MKKVMLATALFLGLTRRKANAADL | 7.36
29 | MKKVMLATALFLPAGANAADL | 7.34
30 | MKKVRRATALFLGLTPAGANAADL | 7.17
31 | MKKVSALTPSTTLAITAKAKEL | 6.89
32 | MKKVVLVLSIAGIGGFSVHAASS | 6.91
33 | MKKVVSALSISALALSVSGVASAHEI | 2.8
34 | MKKWIYGGQTGKIAGIGGFSVHAASS | 6.97
35 | MKKWIYIMSFMIVVLVLSIAGIGGFSVHAASS | 4
36 | MKKWIYTVLVLSIAGIGGFSVHAASS | 6.39
37 | MKKWIYTYKVLSIAGIGGFSVHAASS | 6.93
38 | MKKWIYVKKKKKKAGIGGFSVHAASS | 6.75
39 | MKKWIYVRKKRSIAGIGGFSVHAASS | 7.24
40 | MKKWIYVRRVLSIAGIGGFSVHAASS | 7.43
41 | MKKWIYVVLVLSIAGIGGFSAFGPVTAVHAASS | 2.96
42 | MKKWIYVVLVLSIAGIGGFSDHAASS | 6.49
43 | MKKWIYVVLVLSIAGIGGFSGHAASS | 5.88
44 | MKKWIYVVLVLSIAGIGGFSLHAASS | 6.87
45 | MKKWIYVVLVLSIAGIGGFSMHAASS | 5.22
46 | MKKWIYVVLVLSIAGIGGFSNHAASS | 6.81
47 | MKKWIYVVLVLSIAGIGGFSSHAASS | 6.17
48 | MKKWIYVVLVLSIAGIGGFSVHAAED | 5.68
49 | MKKWIYVVLVLSIAGIGGFSVHAASR | 5.28
50 | MKKWIYVVLVLSIAGIGGFSVHAKKR | 6.58
51 | MKKWIYVVLVLSIAGIGGFSVHCASS | 6.47
52 | MKKWIYVVLVLSIAGIGGFSVHDASS | 7.82

Row | Sequence | AmyQ secretion efficiency
53 | MKKWIYVVLVLSIAGIGGFSVHGASS | 7.27
54 | MKKWIYVVLVLSIAGIGGFSVHIASS | 6.47
55 | MKKWIYVVLVLSIAGIGGFSVHKASS | 4.97
56 | MKKWIYVVLVLSIAGIGGFSVHMASS | 5.57
57 | MKKWIYVVLVLSIAGIGGFSVHNASS | 5.06
58 | MKKWIYVVLVLSIAGIGGFSVHRASS | 6.42
59 | MKKWIYVVLVLSIAGIGGFSVHSASS | 5.94
60 | MKKWIYVVLVLSIAGIGGFSVHTASS | 6.85
61 | MKKWIYVVLVLSIAGIGGFSVHWASS | 7.53
62 | MKKWIYVVLVLSIAGIGGFSVHYASS | 8.11
63 | MKKWIYVVLVLSIAGIGGFSYHAASS | 7.41
64 | MKKWIYVVLVLSIAGIGGISVSAFSVHAASS | 5.09
65 | MKKWIYVVLVLSIAGIGGKRKKKKVHAASS | 7.49
66 | MKKWIYVVLVLSIAGIGGKRRVHAASS | 7.83
67 | MKKWIYVVLVLSIAGIGGPSVHAASS | 2.74
68 | MKKWKQTQQSGIAAAISIFVYVSTGSEK | 7.55
69 | MKKWKYRRRVVLVLSIAGIGGFSVHAASS | 7.42
70 | MKKWLIIAVSLAIAIVLFDDTDGEAKAAGM | 2.55
71 | MKKWLIIAVSLAIAIVLFMAFKGEAKAAGM | 3.57
72 | MKKWLIIAVSLAIAIVLFMSVSFFAKAAGM | 5.66
73 | MKKWLIIAVSLAIAIVLFMYTAGEAKAAGM | 2.74
74 | MKKWLIIAVSLAIAIVLFMYTKGEAKAAED | 2.66
75 | MKKWLIIAVSLAIAIVLFMYTKGEAKAAGK | 2.87
76 | MKKWLIIAVSLAIAIVLFMYTKGEAKTAGM | 4.28
77 | MKKWLIIAVSLAIAIVLFMYTKGEAKVAGM | 5.3
78 | MKKWLIIAVSLAIAIVLFMYTKGEKKAAGM | 5.84

Row | Sequence | AmyQ secretion efficiency
79 | MKKWLIIAVSLAIAIVLFMYTKGEPKAAGM | 5.65
80 | MKKWLIIAVSLAIAIVLFMYTKGEQKAAGM | 6.98
81 | MKKWLIIAVSLAIAIVLFMYTKGETKAAGM | 3.24
82 | MKKWLIIAVSLAIAIVLFRRKKGRAKAAGM | 5.92
83 | MKKWLIIAVSLAIMYTKGEAKAAGM | 2.92
84 | MKKWLKKKRKKAIAIVLFMYTKGEAKAAGM | 7.14
85 | MKKWLKRKKSLAIAIVLFMYTKGEAKAAGM | 7.31
86 | MKKWLRRAVSLAIAIVLFMYTKGEAKAAGM | 2.72
87 | MKKWMAGLFLAAAVLLCLKRRRKRIQGASS | 6.89
88 | MKKWMAGLFLAAAVLLCLLVTSLMVPQQIQGASS | 4.31
89 | MKKWMAGLFLAAAVLLCLMIQGASS | 3.95
90 | MKKWMAGLFLAAAVLLCLMVPQQCQGASS | 2.09
91 | MKKWMAGLFLAAAVLLCLMVPQQGQGASS | 6.52
92 | MKKWMAGLFLAAAVLLCLMVPQQIQFASS | 5.75
93 | MKKWMAGLFLAAAVLLCLMVPQQIQGASS | 4.93 and 4.6 and 5.33
94 | MKKWMAGLFLAAAVLLCLMVPQQIQGDED | 8.35
95 | MKKWMAGLFLAAAVLLCLMVPQQIQGKKK | 4.71
96 | MKKWMAGLFLAAAVLLCLMVPQQIQPASS | 7.7
97 | MKKWMAGLFLAAAVLLCLMVPQQKQGASS | 3.94
98 | MKKWMAGLFLAAAVLLCLMVPQQLQGASS | 5.67
99 | MKKWMAGLFLAAAVLLCLMVPQQMQGASS | 5.46
100 | MKKWMAGLFLAAAVLLCLMVPQQQQGASS | 6.69
101 | MKKWMAGLFLAAAVLLCLMVPQQSQGASS | 5.65
102 | MKKWMAGLFLAAAVLLCLMVPQQTTGTSGSVIQGASS | 4.56
103 | MKKWMAGLFLAAAVLLCLMVPQQVQGASS | 3.15
104 | MKKWMAGLFLAAAVLLCLMVPQQYQGASS | 6.35

Row | Sequence | AmyQ secretion efficiency
105 | MKKWMALTSGLFLAAAVLLCLMVPQQIQGASS | 4.17
106 | MKKWMASQKKSTQVLLCLMVPQQIQGASS | 7.24
107 | MKKWMASTSFSMGLFLAAAVLLCLMVPQQIQGASS | 5.01
108 | MKKWMATGSLAAAVLLCLMVPQQIQGASS | 2.83
109 | MKKWMILILAGIALFVFISPLKSHKT | 7.86
110 | MKKWMITIAMLILAGIALFVFIDPLKSHKT | 6.61
111 | MKKWMITIAMLILAGIALFVFIFSPLKSHKT | 7.63
112 | MKKWMITIAMLILAGIALFVFIRKKRRLKSHKT | 6.07
113 | MKKWMITIAMLILAGIALFVFIRKLKSHKT | 7.72
114 | MKKWMITIAMLILAGIALFVFISPFKSHKT | 6.23
115 | MKKWMITIAMLILAGIALFVFISPIKSHKT | 6.77
116 | MKKWMITIAMLILAGIALFVFISPLKGHKT | 6.29
117 | MKKWMITIAMLILAGIALFVFISPLKRHKT | 7.32
118 | MKKWMITIAMLILAGIALFVFISPLKSHKT | 6.27 and 6.6 and 6.11
119 | MKKWMITIAMLILAGIALFVFISPLKWHKT | 5.74
120 | MKKWMITIAMLILAGIALFVFISPNKSHKT | 5.8
121 | MKKWMITIAMLILAGIALFVFISPPKSHKT | 5.84
122 | MKKWMITIAMLILAGIALFVFISPPPFFTAVPSTVLKSHKT | 6.23
123 | MKKWMITIAMLILAGIALFVFISPRKSHKT | 4.44
124 | MKKWMITIAMLILAGIALFVFISPSKSHKT | 6.65
125 | MKKWMITIAMLILAGIALFVFISPTKSHKT | 7.06
126 | MKKWMITIAMLILAGIALFVFISPTSSSTTFLKSHKT | 7.57
127 | MKKWMITIAMLILAGIALFVFISPVKSHKT | 6.53
128 | MKKWMITIAMLILAGIALFVFISPWKSHKT | 6.16
129 | MKKWMITIAMLILAGIALFVFISPYKSHKT | 6.74
